Experimental data from patent publication US20220001043A1 (IMAGINAB, published 2022).
Values belong to the binder of their own block, whether it stands above or below them.

What was measured:
human CD8 [1] = target: T1, human CD8 (Homo sapiens, UniProt P01732 22-235; A6NJW9 19-210); test: binding to CD8 glycoprotein; method not given
T1 construct: CD8 as carried by purified human T cells, HPB-ALL leukemia cells, human tissues and CD8+ cells in patients; also called huCD8; CD8 glycoprotein

human CD8 [2] = target: T1, human CD8; test: flow cytometry on HPB-ALL cell line carrying CD8
Description: (§1) The binding affinity and specificity of IAB22M2C and Zr-Df-IAB22M2C to human CD8 expressed on cell surfaces were evaluated by flow cytometry for a several cell types, including HPB-ALL leukemia cells (DSMZ, Braunschweig, Germany), purified human T cells, and PC3 prostate cancer cells engineered to express huCD8 (ImaginAb, Inc.).

human CD8 [3] = target: T1, human CD8; test: flow cytometry on human T cells carrying CD8
Description: as §1

human CD8 [4] = target: T1, human CD8; test: cell binding; read as HPB-ALL cells ('respectively' taken to mean the cell types, as in p-1525)
human CD8 [5] = target: T1, human CD8; test: cell binding; read as purified human T cells ('respectively' taken to mean the cell types, as in p-1525)

T1 sequence (P01732 22-235 limits assumed, chain 1 of 2): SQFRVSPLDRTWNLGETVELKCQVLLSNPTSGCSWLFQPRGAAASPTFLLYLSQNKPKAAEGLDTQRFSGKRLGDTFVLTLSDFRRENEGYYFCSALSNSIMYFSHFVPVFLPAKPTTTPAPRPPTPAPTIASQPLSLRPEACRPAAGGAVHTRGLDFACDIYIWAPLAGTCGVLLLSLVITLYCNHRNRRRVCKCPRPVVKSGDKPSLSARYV
T1 sequence (A6NJW9 19-210 C51R/T71A limits assumed, chain 2 of 2): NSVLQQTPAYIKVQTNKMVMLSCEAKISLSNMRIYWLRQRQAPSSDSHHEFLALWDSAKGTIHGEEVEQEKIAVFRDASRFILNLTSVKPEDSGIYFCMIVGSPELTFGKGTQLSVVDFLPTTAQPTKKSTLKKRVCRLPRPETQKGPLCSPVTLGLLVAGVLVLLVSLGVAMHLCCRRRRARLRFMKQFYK

EC50 (human CD8 [1]): 0.4 nM
B1: 89Zr-Df-IAB22M2C (other)
chain: DVQITQSPSSLSASVGDRVTITCRTSRSISQYLAWYQQKPGKVPKLLIYSGSTLQSGVPSRFSGSGSGTDFTLTISSLQPEDVATYYCQQHNENPLTFGGGTKVEIKGSTSGGGSGGGSGGGGSSEVQLVESGGGLVQPGGSLRLSCAASGFNIKDTYIHFVRQAPGKGLEWIGRIDPANDNTLYASKFQGKATISADTSKNTAYLQMNSLRAEDTAVYYCGRGYGYYVFDHWGQGTLVTVSSEPKSSDKTHTCPPCPPCGGGSSGGGSGGQPREPQVYTLPPSREEMTKNQVSLTCLVKGFYPSDIAVEWESNGQPENNYKTTPPVLDSDGSFFLYSKLTVDKSRWQQGNVFSCSVMHEALHNHYTQKSLSLSPG
modifications: deferoxamine (Df) conjugated to lysine residues, radiolabeled with 89Zr
notes: Radiolabeled drug product; Same polypeptide as m1; For patients it is formulated together with cold unconjugated IAB22M2C; also called 89Zr-Df-IAB22M Lot: 42-040A; CD8 PET tracer

EC50 (human CD8 [2]): 0.3 nM
EC50 (human CD8 [3]): 0.4 nM
B2: IAB22M2C (other)
chain: DVQITQSPSSLSASVGDRVTITCRTSRSISQYLAWYQQKPGKVPKLLIYSGSTLQSGVPSRFSGSGSGTDFTLTISSLQPEDVATYYCQQHNENPLTFGGGTKVEIKGSTSGGGSGGGSGGGGSSEVQLVESGGGLVQPGGSLRLSCAASGFNIKDTYIHFVRQAPGKGLEWIGRIDPANDNTLYASKFQGKATISADTSKNTAYLQMNSLRAEDTAVYYCGRGYGYYVFDHWGQGTLVTVSSEPKSSDKTHTCPPCPPCGGGSSGGGSGGQPREPQVYTLPPSREEMTKNQVSLTCLVKGFYPSDIAVEWESNGQPENNYKTTPPVLDSDGSFFLYSKLTVDKSRWQQGNVFSCSVMHEALHNHYTQKSLSLSPG
notes: also called IAB22M2C Mb; IAB22M2C minibody

EC50 (human CD8 [4]): 0.3 nM
EC50 (human CD8 [5]): 0.4 nM
B3: Df-IAB22M2C (other)
chain: DVQITQSPSSLSASVGDRVTITCRTSRSISQYLAWYQQKPGKVPKLLIYSGSTLQSGVPSRFSGSGSGTDFTLTISSLQPEDVATYYCQQHNENPLTFGGGTKVEIKGSTSGGGSGGGSGGGGSSEVQLVESGGGLVQPGGSLRLSCAASGFNIKDTYIHFVRQAPGKGLEWIGRIDPANDNTLYASKFQGKATISADTSKNTAYLQMNSLRAEDTAVYYCGRGYGYYVFDHWGQGTLVTVSSEPKSSDKTHTCPPCPPCGGGSSGGGSGGQPREPQVYTLPPSREEMTKNQVSLTCLVKGFYPSDIAVEWESNGQPENNYKTTPPVLDSDGSFFLYSKLTVDKSRWQQGNVFSCSVMHEALHNHYTQKSLSLSPG
modifications: deferoxamine (Df) conjugated to lysine residues; chelator:minibody ratio of approximately 2
notes: Same polypeptide as m1; also called desferrioxamine-conjugated IAB22M2C; Df-IAB22M2C critical intermediate
